# Laboratory results from PMC4455283, “Crystal structure of TRIM20 C-terminal coiled-coil/B30.2 fragment: implications for the recognition of higher order oligomers” (Scientific Reports, 2015).
# B1: TRIM20Δ413 (TRIM20 coiled-coil/B30.2 fragment) (domain or fragment, human, UniProt O15553 414-781, looked up)
# chain: EVALEHKKKIQKQLEHLKKLRKSGEEQRSYGEEKAVSFLKQTEALKQRVQRKLEQVYYFLEQQEHFFVASLEDVGQMVGQIRKAYDTRVSQDIALLDALIGELEAKECQSEWELLQDIGDILHRAKTVPVPEKWTTPQEIKQKIQLLHQKSEFVEKSTKYFSETLRSEMEMFNVPELIGAQAHAVNVILDAETAYPNLIFSDDLKSVRLGNKWERLPDGPQRFDSCIIVLGSPSFLSGRRYWEVEVGDKTAWILGACKTSISRKGNMTLSPENGYWVVIMMKENEYQASSVPPTRLLIKEPPKRVGIFVDYRVGSISFYNVTARSHIYTFASCSFSGPLQPIFSPGTRDGGKNTAPLTICPVGGQGPD
# notes: TRIM20 (pyrin, marenostrin), human, UniProt O15553; construct starting with E414, comprising the CHS (coiled-coil, E414-N586) and B30.2 (E589-G776) domains; Calculated monomer mass printed as 42 737 Da (85.7 kDa dimer); also called CHS-B30.2; TRIM20 C-terminal coiled-coil/B30.2 fragment; source: purified
# Assays:
# [1] = biological target: the molecule itself; test: AUC; sedimentation velocity analytical ultracentrifugation at 4 °C
# pro-interleukin-1β = biological target: T1, pro-interleukin-1β (UniProt P01584 1-269); test: SPR; TRIM20Δ413 and pro-IL-1β; heterogeneous ligand model; apparent dissociation constants; immobilised partner not told in the text shown; conditions: both partners purified
# T1 construct: pro-interleukin-1β (uncleaved precursor of IL-1β); Printed mass 31.9 kDa; The FLAG tag is named for the co-immunoprecipitation; also called pro-IL-1β; FLAG-tagged pro-IL-1β; source: purified
binder,measurement,setting,value
B1,stoichiometry N,[1],2
same,"apparent KD, heterogeneous ligand model, first constant",pro-interleukin-1β,0.7 µM
same,"apparent KD, heterogeneous ligand model, second constant",pro-interleukin-1β,13.7 µM
